The target in the assay is T1, human immunodeficiency virus 1 (HIV-1) (group M, subtype B, Isolate MN) gp120 Protein (HIV-1 (group M, subtype B, isolate MN), UniProt P05877 30-513).
T1 construct: also called gp120 core; His-tagged gp120; source: bought: Sino Biological (Catalog No: 40405-V08H)
Kind of assay: ELISA; plates coated with human TNFR1 or TNFR2 (5 µg/mL, carbonate buffer pH 9.6, overnight 4 °C), blocked with 3% BSA; serial dilutions of gp120, 2 h room temperature; wash 20 mM Tris-HCl, 500 mM NaCl, 0.05% Tween-20, pH 7.5; bound gp120 detected with anti-His-HRP. The note with it: both partners purified. In general terms: An ELISA detects its analyte on a solid surface through an enzyme-linked reagent.

The results in this text go back to PMC13137973, “Tumor Necrosis Factor Receptor 2 Inhibits HIV-1 Infection by Blocking the Binding of gp120 to CD4” (International Journal of Biological Sciences, 2026).

B1: human TNFR2 / CD120b protein, extracellular domain (residues 1-257) (domain or fragment, UniProt P20333-1 23-257, looked up)
chain: LPAQVAFTPYAPEPGSTCRLREYYDQTAQMCCSKCSPGQHAKVFCTKTSDTVCDSCEDSTYTQLWNWVPECLSCGSRCSSDQVETQACTREQNRICTCRPGWYCALSKQEGCRLCAPLRKCRPGFGVARPGTETSDVVCKPCAPGTFSNTTSSTDICRPHQICNVVAIPGNASMDAVCTSTSPTRSMAPGAVHLPQPVSTRSQHTQPTPEPSTAPSTSFLLPMGPSPPAEGSTGD
notes: also called tumor necrosis factor receptor type II; immobilized TNFR2; source: bought: Sino Biological (Catalog No: 10417-H08H)
In the case of B1, the binding result is on record as “binds”.
